Laboratory results from US20230357348A1 (AstraZeneca / MedImmune, published 2023).
Starred links: 1 amine or outer side, 2 acyl side, 3 side chain; linkers in the order of their positions; H or OH if unused. Non-standard residues stand in square brackets, D forms with d. Groups on a side chain read outwards from the residue. No end group written: not given here. *: point of attachment. C20 diacid = O=C(O)CCCCCCCCCCCCCCCCCCC(=O)*; C18 diacid = O=C(O)CCCCCCCCCCCCCCCCC(=O)*; γGlu = O=C(O)[C@H](CCC(=O)[*:2])N[*:1]; αMeF = C[C@](N)(Cc1ccccc1)C(=O)O; AEEA = NCCOCCOCC(=O)O; Aib = CC(C)(N)C(=O)O

B1: Peptide 166 (peptide)
peptide: H[Aib]QGTFTSDVSK[αMeF]LDSK([AEEA-AEEA-γGlu-C18 diacid])RARDFVRWLL[Aib]TE-OH
modifications: N-terminus assumed
SMILES: CC(C)C[C@H](NC(=O)[C@H](Cc1c[nH]c2ccccc12)NC(=O)[C@H](CCCNC(=N)N)NC(=O)[C@@H](NC(=O)[C@H](Cc1ccccc1)NC(=O)[C@H](CC(=O)O)NC(=O)[C@H](CCCNC(=N)N)NC(=O)[C@H](C)NC(=O)[C@H](CCCNC(=N)N)NC(=O)[C@H](CCCCNC(=O)COCCOCCNC(=O)COCCOCCNC(=O)CC[C@H](NC(=O)CCCCCCCCCCCCCCCCC(=O)O)C(=O)O)NC(=O)[C@H](CO)NC(=O)[C@H](CC(=O)O)NC(=O)[C@H](CC(C)C)NC(=O)[C@](C)(Cc1ccccc1)NC(=O)[C@H](CCCCN)NC(=O)[C@H](CO)NC(=O)[C@@H](NC(=O)[C@H](CC(=O)O)NC(=O)[C@H](CO)NC(=O)[C@@H](NC(=O)[C@H](Cc1ccccc1)NC(=O)[C@@H](NC(=O)CNC(=O)[C@H](CCC(N)=O)NC(=O)C(C)(C)NC(=O)[C@@H](N)Cc1c[nH]cn1)[C@@H](C)O)[C@@H](C)O)C(C)C)C(C)C)C(=O)N[C@@H](CC(C)C)C(=O)NC(C)(C)C(=O)N[C@H](C(=O)N[C@@H](CCC(=O)O)C(=O)O)[C@@H](C)O
B2: Peptide 151 (peptide)
peptide: H[Aib]QGTFTSDVSK[αMeF]LDSK([AEEA-AEEA-γGlu-C20 diacid])RAQDFVRWLL[Aib]TE-OH
modifications: N-terminus assumed
SMILES: CC(C)C[C@H](NC(=O)[C@H](Cc1c[nH]c2ccccc12)NC(=O)[C@H](CCCNC(=N)N)NC(=O)[C@@H](NC(=O)[C@H](Cc1ccccc1)NC(=O)[C@H](CC(=O)O)NC(=O)[C@H](CCC(N)=O)NC(=O)[C@H](C)NC(=O)[C@H](CCCNC(=N)N)NC(=O)[C@H](CCCCNC(=O)COCCOCCNC(=O)COCCOCCNC(=O)CC[C@H](NC(=O)CCCCCCCCCCCCCCCCCCC(=O)O)C(=O)O)NC(=O)[C@H](CO)NC(=O)[C@H](CC(=O)O)NC(=O)[C@H](CC(C)C)NC(=O)[C@](C)(Cc1ccccc1)NC(=O)[C@H](CCCCN)NC(=O)[C@H](CO)NC(=O)[C@@H](NC(=O)[C@H](CC(=O)O)NC(=O)[C@H](CO)NC(=O)[C@@H](NC(=O)[C@H](Cc1ccccc1)NC(=O)[C@@H](NC(=O)CNC(=O)[C@H](CCC(N)=O)NC(=O)C(C)(C)NC(=O)[C@@H](N)Cc1c[nH]cn1)[C@@H](C)O)[C@@H](C)O)C(C)C)C(C)C)C(=O)N[C@@H](CC(C)C)C(=O)NC(C)(C)C(=O)N[C@H](C(=O)N[C@@H](CCC(=O)O)C(=O)O)[C@@H](C)O
B3: Peptide 519 (peptide)
peptide: H[Aib]QGTFTSDVSK[αMeF]LDTK([γGlu-γGlu-AEEA-AEEA-γGlu-γGlu-C18 diacid])RARDFVQWLLE[Aib]G-OH
modifications: N-terminus assumed
SMILES: CC(C)C[C@H](NC(=O)[C@H](Cc1c[nH]c2ccccc12)NC(=O)[C@H](CCC(N)=O)NC(=O)[C@@H](NC(=O)[C@H](Cc1ccccc1)NC(=O)[C@H](CC(=O)O)NC(=O)[C@H](CCCNC(=N)N)NC(=O)[C@H](C)NC(=O)[C@H](CCCNC(=N)N)NC(=O)[C@H](CCCCNC(=O)CC[C@H](NC(=O)CC[C@H](NC(=O)COCCOCCNC(=O)COCCOCCNC(=O)CC[C@H](NC(=O)CC[C@H](NC(=O)CCCCCCCCCCCCCCCCC(=O)O)C(=O)O)C(=O)O)C(=O)O)C(=O)O)NC(=O)[C@@H](NC(=O)[C@H](CC(=O)O)NC(=O)[C@H](CC(C)C)NC(=O)[C@](C)(Cc1ccccc1)NC(=O)[C@H](CCCCN)NC(=O)[C@H](CO)NC(=O)[C@@H](NC(=O)[C@H](CC(=O)O)NC(=O)[C@H](CO)NC(=O)[C@@H](NC(=O)[C@H](Cc1ccccc1)NC(=O)[C@@H](NC(=O)CNC(=O)[C@H](CCC(N)=O)NC(=O)C(C)(C)NC(=O)[C@@H](N)Cc1c[nH]cn1)[C@@H](C)O)[C@@H](C)O)C(C)C)[C@@H](C)O)C(C)C)C(=O)N[C@@H](CC(C)C)C(=O)N[C@@H](CCC(=O)O)C(=O)NC(C)(C)C(=O)NCC(=O)O
B4: Peptide 150 (peptide)
peptide: H[Aib]QGTFTSDVSK[αMeF]LDSK([AEEA-AEEA-γGlu-C18 diacid])RAQDFVQWLL[Aib]TE-OH
modifications: N-terminus assumed
SMILES: CC(C)C[C@H](NC(=O)[C@H](Cc1c[nH]c2ccccc12)NC(=O)[C@H](CCC(N)=O)NC(=O)[C@@H](NC(=O)[C@H](Cc1ccccc1)NC(=O)[C@H](CC(=O)O)NC(=O)[C@H](CCC(N)=O)NC(=O)[C@H](C)NC(=O)[C@H](CCCNC(=N)N)NC(=O)[C@H](CCCCNC(=O)COCCOCCNC(=O)COCCOCCNC(=O)CC[C@H](NC(=O)CCCCCCCCCCCCCCCCC(=O)O)C(=O)O)NC(=O)[C@H](CO)NC(=O)[C@H](CC(=O)O)NC(=O)[C@H](CC(C)C)NC(=O)[C@](C)(Cc1ccccc1)NC(=O)[C@H](CCCCN)NC(=O)[C@H](CO)NC(=O)[C@@H](NC(=O)[C@H](CC(=O)O)NC(=O)[C@H](CO)NC(=O)[C@@H](NC(=O)[C@H](Cc1ccccc1)NC(=O)[C@@H](NC(=O)CNC(=O)[C@H](CCC(N)=O)NC(=O)C(C)(C)NC(=O)[C@@H](N)Cc1c[nH]cn1)[C@@H](C)O)[C@@H](C)O)C(C)C)C(C)C)C(=O)N[C@@H](CC(C)C)C(=O)NC(C)(C)C(=O)N[C@H](C(=O)N[C@@H](CCC(=O)O)C(=O)O)[C@@H](C)O
B5: Peptide 518 (peptide)
peptide: H[Aib]QGTFTSDVSK[αMeF]LDTK([AEEA-AEEA-γGlu-γGlu-C18 diacid])RARDFVQWLLE[Aib]G-OH
modifications: N-terminus assumed
SMILES: CC(C)C[C@H](NC(=O)[C@H](Cc1c[nH]c2ccccc12)NC(=O)[C@H](CCC(N)=O)NC(=O)[C@@H](NC(=O)[C@H](Cc1ccccc1)NC(=O)[C@H](CC(=O)O)NC(=O)[C@H](CCCNC(=N)N)NC(=O)[C@H](C)NC(=O)[C@H](CCCNC(=N)N)NC(=O)[C@H](CCCCNC(=O)COCCOCCNC(=O)COCCOCCNC(=O)CC[C@H](NC(=O)CC[C@H](NC(=O)CCCCCCCCCCCCCCCCC(=O)O)C(=O)O)C(=O)O)NC(=O)[C@@H](NC(=O)[C@H](CC(=O)O)NC(=O)[C@H](CC(C)C)NC(=O)[C@](C)(Cc1ccccc1)NC(=O)[C@H](CCCCN)NC(=O)[C@H](CO)NC(=O)[C@@H](NC(=O)[C@H](CC(=O)O)NC(=O)[C@H](CO)NC(=O)[C@@H](NC(=O)[C@H](Cc1ccccc1)NC(=O)[C@@H](NC(=O)CNC(=O)[C@H](CCC(N)=O)NC(=O)C(C)(C)NC(=O)[C@@H](N)Cc1c[nH]cn1)[C@@H](C)O)[C@@H](C)O)C(C)C)[C@@H](C)O)C(C)C)C(=O)N[C@@H](CC(C)C)C(=O)N[C@@H](CCC(=O)O)C(=O)NC(C)(C)C(=O)NCC(=O)O
B6: Peptide 152 (peptide)
peptide: H[Aib]QGTFTSDVSK[αMeF]LDSK([AEEA-AEEA-γGlu-C18 diacid])RAQDFVRWLL[Aib]E-OH
modifications: N-terminus assumed
SMILES: CC(C)C[C@H](NC(=O)[C@H](Cc1c[nH]c2ccccc12)NC(=O)[C@H](CCCNC(=N)N)NC(=O)[C@@H](NC(=O)[C@H](Cc1ccccc1)NC(=O)[C@H](CC(=O)O)NC(=O)[C@H](CCC(N)=O)NC(=O)[C@H](C)NC(=O)[C@H](CCCNC(=N)N)NC(=O)[C@H](CCCCNC(=O)COCCOCCNC(=O)COCCOCCNC(=O)CC[C@H](NC(=O)CCCCCCCCCCCCCCCCC(=O)O)C(=O)O)NC(=O)[C@H](CO)NC(=O)[C@H](CC(=O)O)NC(=O)[C@H](CC(C)C)NC(=O)[C@](C)(Cc1ccccc1)NC(=O)[C@H](CCCCN)NC(=O)[C@H](CO)NC(=O)[C@@H](NC(=O)[C@H](CC(=O)O)NC(=O)[C@H](CO)NC(=O)[C@@H](NC(=O)[C@H](Cc1ccccc1)NC(=O)[C@@H](NC(=O)CNC(=O)[C@H](CCC(N)=O)NC(=O)C(C)(C)NC(=O)[C@@H](N)Cc1c[nH]cn1)[C@@H](C)O)[C@@H](C)O)C(C)C)C(C)C)C(=O)N[C@@H](CC(C)C)C(=O)NC(C)(C)C(=O)N[C@@H](CCC(=O)O)C(=O)O
B7: Peptide 153 (peptide)
peptide: H[Aib]QGTFTSDVSK[αMeF]LDSK([AEEA-AEEA-γGlu-C20 diacid])RAQDFVRWLL[Aib]E-OH
modifications: N-terminus assumed
SMILES: CC(C)C[C@H](NC(=O)[C@H](Cc1c[nH]c2ccccc12)NC(=O)[C@H](CCCNC(=N)N)NC(=O)[C@@H](NC(=O)[C@H](Cc1ccccc1)NC(=O)[C@H](CC(=O)O)NC(=O)[C@H](CCC(N)=O)NC(=O)[C@H](C)NC(=O)[C@H](CCCNC(=N)N)NC(=O)[C@H](CCCCNC(=O)COCCOCCNC(=O)COCCOCCNC(=O)CC[C@H](NC(=O)CCCCCCCCCCCCCCCCCCC(=O)O)C(=O)O)NC(=O)[C@H](CO)NC(=O)[C@H](CC(=O)O)NC(=O)[C@H](CC(C)C)NC(=O)[C@](C)(Cc1ccccc1)NC(=O)[C@H](CCCCN)NC(=O)[C@H](CO)NC(=O)[C@@H](NC(=O)[C@H](CC(=O)O)NC(=O)[C@H](CO)NC(=O)[C@@H](NC(=O)[C@H](Cc1ccccc1)NC(=O)[C@@H](NC(=O)CNC(=O)[C@H](CCC(N)=O)NC(=O)C(C)(C)NC(=O)[C@@H](N)Cc1c[nH]cn1)[C@@H](C)O)[C@@H](C)O)C(C)C)C(C)C)C(=O)N[C@@H](CC(C)C)C(=O)NC(C)(C)C(=O)N[C@@H](CCC(=O)O)C(=O)O

Each binder was assayed against human GLP-1 receptor (hGLP-1R) (human, UniProt P43220 24-463) (assay: cell-based or functional assay).

Binder	hGLP-1R EC50 (pM)
B1	48
B2	111
B3	172
B4	166
B5	31
B6	11.9
B7	41.2
H[Aib]QGTFTSDVSK[αMeF]LDTKRARDFVQWLLE[Aib]G-OH (not fully specified (residue 17)) [Peptide 520]	543

Each binder was assayed against human glucagon receptor (hGCGR) (human, UniProt P47871 26-477) (assay: cell-based or functional assay).
Chain of human glucagon receptor (hGCGR) (P47871 26-477): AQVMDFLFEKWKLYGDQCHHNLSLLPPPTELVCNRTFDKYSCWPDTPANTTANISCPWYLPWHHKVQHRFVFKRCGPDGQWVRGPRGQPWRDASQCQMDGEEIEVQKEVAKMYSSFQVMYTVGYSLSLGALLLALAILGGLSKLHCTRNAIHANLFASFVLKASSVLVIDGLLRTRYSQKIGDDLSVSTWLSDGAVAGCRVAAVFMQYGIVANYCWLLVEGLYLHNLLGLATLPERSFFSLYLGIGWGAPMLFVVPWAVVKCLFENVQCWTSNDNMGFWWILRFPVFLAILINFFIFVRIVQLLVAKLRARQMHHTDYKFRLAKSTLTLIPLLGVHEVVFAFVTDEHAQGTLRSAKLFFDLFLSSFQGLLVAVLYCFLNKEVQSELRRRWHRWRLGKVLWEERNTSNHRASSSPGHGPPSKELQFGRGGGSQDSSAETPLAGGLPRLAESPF

Binder	hGluc-R EC50 (pM)
B1	270
B2	178
B3	386
B4	355
B5	77.3
B6	20.4
B7	99
H[Aib]QGTFTSDVSK[αMeF]LDTKRARDFVQWLLE[Aib]G-OH (not fully specified (residue 17)) [Peptide 520]	1620
